One test has as its target T1, rat GIP receptor (rGIPr) (Rattus norvegicus, UniProt P43219).
T1 construct: expressed in transfected cells; host or cells: HEK293s or CHO cells
T1 sequence (P43219 19-455): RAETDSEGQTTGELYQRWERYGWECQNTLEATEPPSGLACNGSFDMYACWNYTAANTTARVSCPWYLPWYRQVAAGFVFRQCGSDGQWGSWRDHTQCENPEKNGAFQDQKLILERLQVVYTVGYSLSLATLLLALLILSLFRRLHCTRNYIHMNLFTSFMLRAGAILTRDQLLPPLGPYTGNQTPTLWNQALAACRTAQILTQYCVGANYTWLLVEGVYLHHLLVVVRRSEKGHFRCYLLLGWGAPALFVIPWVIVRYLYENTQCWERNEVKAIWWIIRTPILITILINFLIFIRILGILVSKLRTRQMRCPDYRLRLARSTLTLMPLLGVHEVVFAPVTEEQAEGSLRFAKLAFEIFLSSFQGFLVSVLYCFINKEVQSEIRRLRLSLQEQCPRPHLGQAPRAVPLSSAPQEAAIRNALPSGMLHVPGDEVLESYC
As to the kind of experiment: BSA-cAMP assay, cells expressing rat GIP receptor. Particulars: BSA-cAMP assay; read-out: cAMP activity rGIPr (EC50). Format: cell-based. Summed up:
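EC50 is the midpoint of an unconstrained 4-parameter logistic fit to HTRF cAMP data, expressed as percent of maximal native agonist response, from two separate occasions. Rodent (mouse, rat) GLP-1R- or GIPR-expressing cells were incubated with compound 30 min at room temperature in 0.1% BSA medium, in duplicate.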

Another test concerns the target T2, hGIPr (C3) (Homo sapiens, UniProt P48546).
T2 construct: expressed in transfected cells
T2 sequence (P48546 22-466): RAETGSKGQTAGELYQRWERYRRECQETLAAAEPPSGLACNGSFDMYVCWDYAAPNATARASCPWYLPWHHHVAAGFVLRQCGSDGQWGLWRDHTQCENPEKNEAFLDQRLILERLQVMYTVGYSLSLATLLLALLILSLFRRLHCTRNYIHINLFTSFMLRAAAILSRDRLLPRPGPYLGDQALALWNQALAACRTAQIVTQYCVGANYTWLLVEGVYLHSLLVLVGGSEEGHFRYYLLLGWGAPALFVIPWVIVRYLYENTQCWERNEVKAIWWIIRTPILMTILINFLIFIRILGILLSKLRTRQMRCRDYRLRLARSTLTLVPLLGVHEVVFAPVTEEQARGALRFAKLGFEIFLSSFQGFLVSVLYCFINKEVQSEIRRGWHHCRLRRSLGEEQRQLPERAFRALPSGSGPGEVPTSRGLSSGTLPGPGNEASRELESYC
As to the kind of experiment: BSA-cAMP assay, second human GIPr cell line hGIPr (C3). Format: cell-based. Particulars: second human GIPr cell line, STDEV or N in the line below, read-out: cAMP activity hGIPr (C3) (EC50). The protocol:
For human GIPr, two different lines were used, shown as “hGIPr” and “hGIPr (C3)” in Table 11. Peptide activation of these various receptors results in downstream production of cAMP second messenger that can be measured in a functional activity assay.
One basic cAMP assays was performed, differing in the medium used for the assay, the “BSA-cAMP assay”:
BSA-based assay medium: 0.1% bovine serum albumin (BSA) in
Hanks Balanced Salt Solution (GIBCO or Sigma), containing 0.5 mM IBMX (Sigma #17018);
In certain aspects, the assay can also be carried out in medium supplemented with serum albumin that corresponds to the receptor being tested, e.g., human serum albumin for testing cAMP activity at hGIPr or hGLP-1r, rat serum albumin for testing cAMP activity at rGIPr or rGLP-1r, and so on. […]
cAMP levels were measured using a commercially available cAMP dynamic 2 HTRF kit (Cisbio, Cat #62AM4PEJ), following the two step protocol as per manufacturer's recommendations. […] Plates were incubated at room temperature for one hour and then read on an Envision (Perkin Elmer) using excitation wavelength of 320 nm and emission wavelengths of 620 nm & 665 nm. Data was transformed to % Delta F as described in manufacturer's guidelines and then transformed to percent activation of maximal native agonist response and analysed by 4-parameter logistic fit to determine EC50 values. […]

B1: IP018 (protein)
chain: YSEGTFISDYSIAMDKIHQQDFVNWLLAQKAAAGGSGSTASSGSGSATGGGGAATHTCPPCPAPEF
modifications: /note=“Description of Artificial Sequence Synthetic Peptide-linker-hinge polypeptide”
For the molecule B1, the EC50 (as a rule, the concentration giving half of the maximal effect) with rat GIP receptor (rGIPr) was found to be 0.0076 nM; with hGIPr (C3), 0.8 nM.

The values are drawn from patent US20160185837A1 (Medimmune Limited, priority 2013, published 2016).
